Target: GST-tagged intracellular c-terminus of LRP6, in vitro phosphorylated with GSK3 and CK1
Test: pull-down

Strep-tag-Mena-EVH1-CC (domain or fragment)
fold increase of the interaction against unphosphorylated GST-LRP6: 20 fold

From article doi:10.1101/2025.11.24.690281
